This is an account of results in patent US20170119913A1 (3B PHARMACEUTICALS, published 2017).

The assay has as its target T1, CCR1 (h), C-C chemokine receptor type 1 (human (printed as (h)), UniProt P32246 1-355).
T1 sequence (looked up): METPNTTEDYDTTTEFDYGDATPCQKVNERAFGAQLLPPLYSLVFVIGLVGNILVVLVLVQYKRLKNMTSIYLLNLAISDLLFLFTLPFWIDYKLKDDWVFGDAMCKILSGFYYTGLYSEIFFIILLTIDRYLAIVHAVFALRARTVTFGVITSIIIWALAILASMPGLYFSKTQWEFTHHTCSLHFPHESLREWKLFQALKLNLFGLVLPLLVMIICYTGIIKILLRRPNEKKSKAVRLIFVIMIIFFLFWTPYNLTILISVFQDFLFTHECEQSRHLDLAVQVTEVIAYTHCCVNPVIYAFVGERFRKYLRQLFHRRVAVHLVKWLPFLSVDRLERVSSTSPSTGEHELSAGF
The assay is described as follows: Cerep ExpresSProfile radioligand competition binding, reference compound (agonist radioligand).

B1: MIP-1alpha (ligand, UniProt P10147 24-92, looked up)
chain: SLAADTPTACCFSYTSRQIPQNFIADYFETSSQCSKPGVIFLTKRSRQVCADPSEEWVQKYVSDLELSA
In the case of B1, the Ki (as a rule, a dissociation constant, usually derived from enzyme kinetics or from competition with a known ligand) was 0.041 nM.
